The nature of this series: yeast display, Sf9 membrane polyspecificity reagent, FACS + sequencing; frameworks hold sequencing errors. A digest of the protocol: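 Galactose-induced (36–48 hours) yeast carrying a synthetic nanobody display library were exposed to 10% biotinylated, detergent-solubilized Sf9 membrane reagent at 4 °C for 1 hour. FACS followed streptavidin microbead enrichment, using low and high (top ~1%) gates for expression (anti-HA) and reagent binding (streptavidin). Colony PCR, MiSeq 2 × 250 sequencing and CDR-length filtering followed. Labels for polyreactivity reflect the gate of origin.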
For “QVQLVESGGGLVQAGGSLRLSCAASGGTFGVYYAMGRYRQAPGKERELVADISWSAGSTYYADSVKGRFTISRDNAKNTVYLQMNSLKPEDTAVYYCAARYAVYWPWYVREYDYWGQGTQVTVSS”, the “polyreactivity (PSR sort gate)” value is “low polyreactivity”.
Regarding “QVQLVESGGGLVQAGGSLRLSCAASGGTFGYNVMGWYRQAPGKERELVAAISYSVGGTYYADSVKGRFTISRDNAKNTVYLQMNSLKPEDTEVYYCAATGRRRTYSEYEYWGQGTQVTVSS”, the “polyreactivity (PSR sort gate)” value is recorded as “high polyreactivity”.
To “QVQLVESGGGLVQAGGSLRLSCAASGGTFHKYDMGWYRQAPGKERELVAYADSVKGRFTISRDNAKNTVYLQMNSLKPEDTAVYYCNADWQSYGYLCHSSLYYYWGQGTQVTVSS” belongs “low polyreactivity”; to “QVQLVESGGGLVQAGGSLRLSCAASGGTFHRNAMGWYRQAPGKERELVAAITSSGGSTNYADSVKGRFTISRDNAKYTVYLQMNSLKPEETAVYYCATDRYRYTSHPWSRGFDYLGQGTQVTVSS”, “low polyreactivity”.
For “QVQLVESGGGLVQAGGSLRLSCAASGGTFHSNAMGWYRQAPGKERELVASINWSGGSTYYADSVKGRFTISRDNAKNTDYLQMNSLKPEDTAVYYCAARESYPGYGYDHWGQGTQVTVSS” the value was “low polyreactivity”; for “QVQLVESGGGLVQAGGSLRLSCAASGGTFHYNAMGWSRQAPGKERELVAAITESGGRTYYADSVKGRFTISRDNAKNTVYLQMNSLKPEDTAVYYCNADQDYDAAYRSDYWGQGTQVTVSS”, “low polyreactivity”; for “QVQLVESGGGLVQAGGSLRLSCAASGGTFKFYAMGWYRQAPGKERELVAAISWSGTSTYYADSVKGRFTISRDNAKNTVYLQMNSLKPEDTAVYYCAADKRLRGHGYDYWGQGTQVTVSS”, “high polyreactivity”.
Regarding “QVQLVESGGGLVQAGGSLRLSCAASGGTFKLYAMGWYRQAPGKERELVAAISRRGGSTYYADSVKVRFTISRDNAKNTVYLQMNSLKPEDTAVYYCAAPGPTQSTQRGGYWGQGTQVTVSS”, the “polyreactivity (PSR sort gate)” value is recorded as “high polyreactivity”.
For “QVQLVESGGGLVQAGGSLRLSCAASGGTFKRNAMGWYRQAPGKERELVAAISTSGATTYYADSVKGRFTISRDNAKNTVYLQMNSLKPEDTAVYYCNAVGDARYNYWGQGTQVTVSS” the value was “high polyreactivity”; for “QVQLVESGGGLVQAGGSLRLSCAASGGTFKSAYVMGWYRQAPGKERELVAAIDSTGSTNYADSVKGRFTISRDNAKNTVYLQMNSLKPEDTAVYYCNADRRELYYDPMDYWGQGTQVTVSS”, “low polyreactivity”; for “QVQLVESGGGLVQAGGSLRLSCAASGGTFLINAMGWYRQAPGKERELVATITSGGTTYYADSVKGRFTISRDNAKNTVYLQMNSLKPEDTAVYYCATRGKGRYGYDSWGQGTQVTVSS”, “low polyreactivity”.
To “QVQLVESGGGLVQAGGSLRLSCAASGGTFPAYTMGWYRQAPGKERELVAAITWSGGNTYYADSVKGRFTISRDNAKNTVYLQMNSLKPQDTAVYYCAAEYWQYQWSVRIDYEYWGQGTQVTVSS” belongs “high polyreactivity”.
For “QVQLVESGGGLVQAGGSLRLSCAASGGTFPQNVMGWYRPAPGKERELVAAISSGGSTYYADSVKVRFTISRDNAKNTVYFQMNSLIPEDTGVYYCAKRRWYRYDYWGQGTQVTVSS” the value was “high polyreactivity”; for “QVQLVESGGGLVQAGGSLRLSCAASGGTFPVYALGWYRQAPGKERELVAAISYSGVTTYYADSVKGRFTISRDNAKNTVYLQMNSLKPEDTAVYYCNADWRRWYIFSYDYWGQGTQVTVSS”, “low polyreactivity”.
As for “QVQLVESGGGLVQAGGSLRLSCAASGGTFPWYTMGWYRQAPGKERELVAAISVSGDSTHYADSVKGRFTISRDNAKNTVYLQMNSLKPEDTAVYYCAATYLVSSDKYDYWGQGTQVTVSS”, the “polyreactivity (PSR sort gate)” value is recorded as “high polyreactivity”.
For “QVQLVESGGGLVQAGGSLRLSCAASGGTFPYNAMGWYRQAAGKERELVAAISSSGTSTYYADSVKRRFTISRDNAKNTVYLQMNSLKPEDTAVYYCNDYFKRYDYWGQGTQVTVSS” the value was “high polyreactivity”.
For “QVQLVESGGGLVQAGGSLRLSCAASGGTFPYNAMGWYRQAPGKERELVAAISSSGTSTYYADSVKGRFTISRDNAKNTVYLQMNSLKPEDTAVYYCNDYFKRYDYWGQGTQVTVSS” the value was “high polyreactivity”; for “QVQLVESGGGLVQAGGSLRLSCAASGGTFPYYAMGWYRQAPGKERELVAAISSSGGRTYYADSVKGRFTISRDNAKNTVYLQMNSLKPEDTAVYYCAKDTYGFAANRPAGDGYWGQGTQVTVSS”, “high polyreactivity”.
For “QVQLVESGGGLVQAGGSLRLSCAASGGTFPYYAMGWYRQAPGKERELVADISGTDGSTYYADSVKGRFTISRDNAKTTVYLQMNSLKPEDTAVYYCNADPHWWYWDYDYWGQGTQVTVSS” the value was “high polyreactivity”.
Turning to “QVQLVESGGGLVQAGGSLRLSCAASGGTFQGNAMGWYRQAPGKEREFVATITRGGGSTYYADSVKGRFTISRDNAKNTVYLQMNSLKPEDTAVYYCNAKPSYYQRYNYWGQGTQVTVSS”, the “polyreactivity (PSR sort gate)” value is listed as “high polyreactivity”.
Turning to “QVQLVESGGGLVQAGGSLRLSCAASGGTFQQNAMGWSRQAPGKERELVAAISWSDGSTYYADSVKGRFTISRDYATNTVYLQMNSLTPEDTAVYYCAADFTYYDSPYRDYNYESWGQGTQVTVSS”, the “polyreactivity (PSR sort gate)” value is listed as “low polyreactivity”.
To “QVQLVESGGGLVQAGGSLRLSCAASGGTFQSNGMGWYIQAPGKERELVATITGSGGDTSYAGSVKGRFTISRDNAKNTVYLQMNSLKPEDTAVYYCAAADADRKYDYWGQGTQVTVSS” belongs “low polyreactivity”; to “QVQLVESGGGLVQAGGSLRLSCAASGGTFRLYAMGWYRQAPGKERELVAAISGRGGSTYYADSVKGRFTISRDNAKNTVYLQMNSLKPEDTAVYYCARYRRGKMDYWGQGTQVTVSS”, “high polyreactivity”; to “QVQLVESGGGLVQAGGSLRLSCAASGGTFRLYTMGWYRQAPGKERELVAGISSSSGSTYYADSVKGRFTISRDNAKNTVYLQMNILKPEDTAVYYCAAYWPRSRYDYWGQGTQVTVSS”, “high polyreactivity”.
Regarding “QVQLVESGGGLVQAGGSLRLSCAASGGTFRNYAMGWYRQAPGKERELVAAITTGTITNYADSVKGRFTISRDNAKNTVYLQMNSLKPEDTAVYYCNAGAFYSDPYDYWGQGTQLTVSS”, the “polyreactivity (PSR sort gate)” value was “low polyreactivity”.
To “QVQLVESGGGLVQAGGSLRLSCAASGGTFRNYPMGWYRQAPGKERELVAAITTGTITNYADSVKGRFTISRDNAKNTVYLQMNSLKPEDTAVYYCNAGAFYSDPYDYWGQGTQVTVSS” belongs “low polyreactivity”; to “QVQLVESGGGLVQAGGSLRLSCAASGGTFRPYAIGWYRQAPGKERELVATIRSSGGRTYYADSVKGRFTISRDNAKNTVYLQMNSLKPEDTAVYYCAKRAQTYYGYVYWGQGTQVTVSS”, “high polyreactivity”.
To “QVQLVESGGGLVQAGGSLRLSCAASGGTFRRYTMGWYTQAPGKVRELVAAITTSGGSTYYADSVKGRFTISRDNAKNTVYLQMNSLKPEDTAVYYCAATRRYSGDYWGQGTQVTVSS” belongs “high polyreactivity”.
To “QVQLVESGGGLVQAGGSLRLSCAASGGTFRVYAMGWYRQAPVKERELVDAITWRGGRTYYADSVKGRFTISRDNAKNTDYFQMNSLKPEDPAVYYCAADRYGDLYDYWGQGTQVTVSS” belongs “high polyreactivity”.
On to “QVQLVESGGGLVQAGGSLRLSCAASGGTFSFYTMGWYRQGPGKERELVAAIDSTGRTNYADSVKGRFTISRENAKNTVYLLMNSLKPDDTAVYYCSAGPPRADYDYWGQGTQVTVSS”, for which the “polyreactivity (PSR sort gate)” value is given as “low polyreactivity”.

The values above are taken from the nanobody polyreactivity screen of Harvey et al. (2022).
